Data reported in publication PMC9123187.

Tests used:
[1] = biological target: Cas11d, small subunit of type I-D Cascade (Synechocystis); assay: cryo-EM structure; type I-D Cascade (co-expressed subunits with crRNA, purified as a complex) bound to a dsDNA target with GTT PAM, 1:2 Cascade:target, 30 °C 30 min; 2.9 Å
[2] = biological target: Type I-D Cascade WT (assay sample) (Synechocystis) (UniProt Q6ZEI7+Q6ZEI6+Q6ZEI5+Q6ZEI7); assay: EMSA; details: EMSA: 10 mM HEPES-NaOH pH 7.5, 100 mM KCl, 5% glycerol, 1 mM DTT, 0.01% Triton X-100, 1 µg BSA, 0.1 µg poly(dI.dC) (dsDNA) or 0.26 µg E. coli tRNA (ssRNA) in …
[3] = biological target: Cas7d, backbone subunit of type I-D Cascade (Synechocystis); assay: cryo-EM structure; type I-D Cascade (co-expressed subunits with crRNA, purified as a complex) bound to a dsDNA target with GTT PAM, 1:2 Cascade:target, 30 °C 30 min; 2.9 Å

Substance	Kd [2]	other results
Cas11d, small subunit of type I-D Cascade (natural protein)		stoichiometry N [1]: 2
GCAUGACGGAUCGAGGCAUUGAAAGCGACCGCCAGGGGCACAACAAUCAACGUGAUACUA / ACUGAAACGAUUGUUGUGCCCCUGGCGGUCGCUUUCAAUGCCU [PF3167 AAC-PFS ssRNA + crRNA]	11 nM	
Cas7d, backbone subunit of type I-D Cascade (natural protein)		stoichiometry N [3]: 7
GCAUGACGGAUCGAGGCAUUGAAAGCGACCGCCAGGGGCACAACAAUCACGGUGAUACUA / ACUGAAACGAUUGUUGUGCCCCUGGCGGUCGCUUUCAAUGCCU [PF5591 ACG-PFS ssRNA + crRNA]	11 nM	
